From article PMC3338619, “Ligand Binding Study of Human PEBP1/RKIP: Interaction with Nucleotides and Raf-1 Peptides Evidenced by NMR and Mass Spectrometry” (PLoS ONE, 2012)
Square brackets hold non-standard residues; d marks the D form. Ends that are not written are not given here. pY = N[C@@H](Cc1ccc(OP(=O)(O)O)cc1)C(=O)O; pS = N[C@@H](COP(=O)(O)O)C(=O)O

Tests used:
[1] = target: T1, Human Phosphatidylethanolamine binding protein 1 (hPEBP1) (human, UniProt P30086 1-187); assay: native MS; hPEBP1 incubated with a range of peptide concentrations, bound protein fraction measured by ESI-MS; ammonium acetate 20 mM, pH 6.6, 20°C; settings: both partners purified
T1 construct: the NMR assignment counts 187 residues in all, from Met1 to Lys187; The NMR samples were uniformly 15N-labelled; also called RKIP; source: E. coli BL21 (DE3), pET31b, purified (anion exchange, cation exchange); 15N-labelled for NMR, non-labelled recombinant for mass spectrometry
T1 sequence (P30086 whole entry): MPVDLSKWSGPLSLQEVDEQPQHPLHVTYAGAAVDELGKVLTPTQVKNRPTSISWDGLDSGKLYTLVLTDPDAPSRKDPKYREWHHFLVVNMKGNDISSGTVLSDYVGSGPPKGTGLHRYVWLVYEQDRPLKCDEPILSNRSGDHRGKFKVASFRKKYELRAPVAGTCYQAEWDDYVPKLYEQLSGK

[2] = target: T1, Human Phosphatidylethanolamine binding …; assay: native MS; hPEBP1 incubated with a range of peptide concentrations, bound protein fraction measured by ESI-MS; ammonium bicarbonate (ABC), pH 7.4, 25°C; settings: both partners purified

B1: tri-phosphorylated Raf-1 peptide (residues 331-349) (peptide)
peptide: RPRGQRD[pS][pS]Y[pY]WEIEASEV
notes: Raf-1 N-region, residues 331-349; three phospho-amino acids at Ser338, Ser339 and Tyr341; also called 3P; Raf-1 peptide; Raf-1 peptide in tri-phosphorylated form; source: synthetic peptide (solid-phase, Fmoc strategy)
Q: Which results are given for B1?
A: Kd [1]: 45 ± 12 µM; Kd [2]: 11 ± 3 µM
